Laboratory results reported in publication PMC5207153, “Differential Receptor Binding and Regulatory Mechanisms for the Lymphangiogenic Growth Factors Vascular Endothelial Growth Factor (VEGF)-C and -D*^([image sbox.jpg])” (The Journal of Biological Chemistry, 2016).
Substitutions are numbered along the chain they refer to. Numbers in names are those of the source. Values belong to the molecule of their own block, whether it stands above or below them.

Tests used:
[1] = target: T1, Recombinant human VEGFR-3-Fc chimera (human, UniProt P35916 25-775)
T1 construct: human VEGFR-3 part of the bought Fc chimera; source: bought: R&D Systems
T1 sequence (looked up): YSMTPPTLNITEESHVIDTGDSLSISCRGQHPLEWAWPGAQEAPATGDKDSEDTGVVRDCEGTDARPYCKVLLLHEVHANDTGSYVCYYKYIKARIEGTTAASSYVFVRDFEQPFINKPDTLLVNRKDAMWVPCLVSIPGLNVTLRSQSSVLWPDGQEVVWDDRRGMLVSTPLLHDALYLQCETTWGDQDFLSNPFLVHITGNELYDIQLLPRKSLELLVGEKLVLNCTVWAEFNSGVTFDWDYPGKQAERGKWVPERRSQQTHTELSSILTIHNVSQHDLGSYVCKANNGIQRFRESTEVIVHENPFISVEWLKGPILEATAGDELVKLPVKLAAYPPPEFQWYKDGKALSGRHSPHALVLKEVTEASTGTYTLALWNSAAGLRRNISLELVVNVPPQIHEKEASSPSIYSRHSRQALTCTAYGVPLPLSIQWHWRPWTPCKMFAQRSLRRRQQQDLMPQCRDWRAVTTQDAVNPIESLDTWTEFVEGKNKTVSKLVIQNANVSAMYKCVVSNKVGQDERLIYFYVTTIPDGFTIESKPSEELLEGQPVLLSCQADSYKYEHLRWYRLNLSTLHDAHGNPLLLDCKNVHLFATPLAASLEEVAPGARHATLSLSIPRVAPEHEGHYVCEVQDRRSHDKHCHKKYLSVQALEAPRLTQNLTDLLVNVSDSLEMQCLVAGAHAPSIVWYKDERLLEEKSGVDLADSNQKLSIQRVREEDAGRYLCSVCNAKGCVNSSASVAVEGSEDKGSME

[2] = target: T1, Recombinant human VEGFR-3-Fc chimera; test: ELISA; plates coated with human VEGFR-2- or VEGFR-3-Fc chimera at 0.5 μg/ml in 100 mM carbonate buffer pH 9.5; blocked with 1% BSA in PBS, 0.1% Tween 20; 20 ng purified FLAG-tagged ligand in 100 μl PBS, 1 h, room temperature; bound ligand detected with M2-HRP; result as percent of VEGF-DΔNΔC; conditions: both partners purified
[3] = target: T2, Recombinant human VEGFR-2-Fc chimera (human, UniProt P35968 20-764); test: as above; conditions: both partners purified
T2 construct: human VEGFR-2 part of the bought Fc chimera; source: bought: R&D Systems
T2 sequence (P35968 20-764, change not shown): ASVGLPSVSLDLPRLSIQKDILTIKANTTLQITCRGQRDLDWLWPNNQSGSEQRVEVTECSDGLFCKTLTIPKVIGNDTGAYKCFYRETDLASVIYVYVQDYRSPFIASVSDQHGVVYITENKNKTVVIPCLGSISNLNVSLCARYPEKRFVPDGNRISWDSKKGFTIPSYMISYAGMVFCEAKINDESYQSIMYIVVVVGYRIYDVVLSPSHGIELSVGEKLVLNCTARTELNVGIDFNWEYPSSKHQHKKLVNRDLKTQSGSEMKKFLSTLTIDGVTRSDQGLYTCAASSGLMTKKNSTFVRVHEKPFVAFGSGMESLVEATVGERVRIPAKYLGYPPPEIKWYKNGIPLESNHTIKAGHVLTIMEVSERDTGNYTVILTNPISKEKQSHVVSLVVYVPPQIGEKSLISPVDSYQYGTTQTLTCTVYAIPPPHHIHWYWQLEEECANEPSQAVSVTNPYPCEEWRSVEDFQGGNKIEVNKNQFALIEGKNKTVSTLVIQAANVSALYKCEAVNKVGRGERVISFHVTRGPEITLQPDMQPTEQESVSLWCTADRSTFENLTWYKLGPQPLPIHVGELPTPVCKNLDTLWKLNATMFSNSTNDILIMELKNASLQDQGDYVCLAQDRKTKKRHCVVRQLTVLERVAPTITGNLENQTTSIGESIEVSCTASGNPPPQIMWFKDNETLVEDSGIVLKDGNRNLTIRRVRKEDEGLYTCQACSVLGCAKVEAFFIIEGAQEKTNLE

- titration of ligand in the bioassay of VEGFR-3 binding and cross-linking; potency relative to VEGF-DΔNΔC (Fig. 6C) [1]: 10 fold
Molecule: VEGF-CΔNΔC (from UniProt P49767 102-229) (ligand)

- binding result [2]: binds
- binding result [3]: binds
B1: VEGF-DΔNΔC (ligand, human, UniProt O43915 93-201, looked up)
chain: FYDIETLKVIDEEWQRTQCSPRETCVEVASELGKSTNTFFKPPCVNVFRCGGCCNEESLICMNTSTSYISKQLFEISVPLTSVPELVPVKVANHTGCKCLPTAPRHPYS
notes: human VEGF-D, residues 93-201 (recombinant form of mature VEGF-D); also called mature human VEGF-D; source: 293-F cells, transiently transfected; purified from conditioned medium on M2 (anti-FLAG) gel; not shown: FLAG, N-terminal, kept

- binding result [3]: binds
B2: VEGF-DΔNΔC I96A (ligand, human, UniProt O43915 93-201, looked up)
chain: B1 chain with I4A
notes: human VEGF-D, residues 93-201, residue 96 (Ile) to alanine; source: 293-F cells, transiently transfected; purified from conditioned medium on M2 (anti-FLAG) gel; not shown: FLAG, N-terminal, kept

- binding result [3]: binds
B3: VEGF-DΔNΔC Y94A (ligand, human, UniProt O43915 93-201, looked up)
chain: B1 chain with Y2A
notes: human VEGF-D, residues 93-201, Y94A; source: 293-F cells, transiently transfected; purified from conditioned medium on M2 (anti-FLAG) gel; not shown: FLAG, N-terminal, kept

- binding result [2]: binds
- binding result [3]: binds
B4: VEGF-DΔNΔC D103A (ligand, human, UniProt O43915 93-201, looked up)
chain: B1 chain with D11A
notes: human VEGF-D, residues 93-201, D103A; source: 293-F cells, transiently transfected; purified from conditioned medium on M2 (anti-FLAG) gel; not shown: FLAG, N-terminal, kept

- binding result [2]: binds
- binding result [3]: binds
B5: VEGF-DΔNΔC E105A (ligand, human, UniProt O43915 93-201, looked up)
chain: B1 chain with E13A
notes: human VEGF-D, residues 93-201, E105A; source: 293-F cells, transiently transfected; purified from conditioned medium on M2 (anti-FLAG) gel; not shown: FLAG, N-terminal, kept

- binding result [2]: binds
- binding result [3]: binds
B6: VEGF-DΔNΔC I102A (ligand, human, UniProt O43915 93-201, looked up)
chain: B1 chain with I10A
notes: human VEGF-D, residues 93-201, I102A; source: 293-F cells, transiently transfected; purified from conditioned medium on M2 (anti-FLAG) gel; not shown: FLAG, N-terminal, kept

- binding result [2]: binds
- binding result [3]: binds
B7: VEGF-DΔNΔC W106A (ligand, human, UniProt O43915 93-201, looked up)
chain: B1 chain with W14A
notes: human VEGF-D, residues 93-201, W106A; source: 293-F cells, transiently transfected; purified from conditioned medium on M2 (anti-FLAG) gel; not shown: FLAG, N-terminal, kept

- binding result [3]: binds
B8: VEGF-DΔNΔC L99A (ligand, human, UniProt O43915 93-201, looked up)
chain: B1 chain with L7A
notes: human VEGF-D, residues 93-201, L99A; source: 293-F cells, transiently transfected; purified from conditioned medium on M2 (anti-FLAG) gel; not shown: FLAG, N-terminal, kept

- binding result [3]: binds
B9: VEGF-DΔNΔC T98A (ligand, human, UniProt O43915 93-201, looked up)
chain: B1 chain with T6A
notes: human VEGF-D, residues 93-201, Thr98 to alanine; source: 293-F cells, transiently transfected; purified from conditioned medium on M2 (anti-FLAG) gel; not shown: FLAG, N-terminal, kept

- binding result [3]: binds
B10: VEGF-DΔNΔC F93A (ligand, human, UniProt O43915 93-201, looked up)
chain: B1 chain with F1A
notes: human VEGF-D, residues 93-201, Phe93 to alanine; source: 293-F cells, transiently transfected; purified from conditioned medium on M2 (anti-FLAG) gel; not shown: FLAG, N-terminal, kept

- binding result [3]: binds
B11: VEGF-DΔNΔC D95A (ligand, human, UniProt O43915 93-201, looked up)
chain: B1 chain with D3A
notes: human VEGF-D, residues 93-201, Asp95 to alanine; source: 293-F cells, transiently transfected; purified from conditioned medium on M2 (anti-FLAG) gel; not shown: FLAG, N-terminal, kept

- binding result [3]: binds
B12: VEGF-DΔNΔC E97A (ligand, human, UniProt O43915 93-201, looked up)
chain: B1 chain with E5A
notes: human VEGF-D, residues 93-201, Glu97 to alanine; source: 293-F cells, transiently transfected; purified from conditioned medium on M2 (anti-FLAG) gel; not shown: FLAG, N-terminal, kept
